The text below walks through data of article PMC3173086.

This assay addresses MppA (murein tripeptide-binding protein of E. coli), His tag cleaved (E. coli K-12) (UniProt P77348). Kind of assay: other fluorescence titration.
Chain of UniProt P77348 (P77348 23-537, tags left off): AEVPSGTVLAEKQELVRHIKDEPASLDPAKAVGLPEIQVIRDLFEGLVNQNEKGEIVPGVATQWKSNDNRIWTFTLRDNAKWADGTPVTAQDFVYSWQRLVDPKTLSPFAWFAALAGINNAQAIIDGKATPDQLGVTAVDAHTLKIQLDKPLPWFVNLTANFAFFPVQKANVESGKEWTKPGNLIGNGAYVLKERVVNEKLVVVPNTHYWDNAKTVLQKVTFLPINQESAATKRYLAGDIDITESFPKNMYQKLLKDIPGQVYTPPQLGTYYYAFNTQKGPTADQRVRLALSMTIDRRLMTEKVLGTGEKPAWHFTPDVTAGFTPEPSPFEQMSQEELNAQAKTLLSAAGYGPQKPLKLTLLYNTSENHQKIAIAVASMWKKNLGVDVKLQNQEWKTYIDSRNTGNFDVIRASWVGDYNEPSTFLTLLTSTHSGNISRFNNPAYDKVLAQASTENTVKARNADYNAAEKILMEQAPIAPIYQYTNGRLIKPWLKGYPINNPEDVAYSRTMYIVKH

For L-Ala-γ-D-Glu-L-Lys (peptide), the Kd was found to be 130 µM.

Usually Kd stands for the constant that tells how readily two partners part at equilibrium. A higher Kd goes with lower affinity.
